Literature values in article PMC9696605 (Viruses, 2022).

Target: Fyn-SH3 (Homo sapiens, UniProt P06241)
Conditions: phosphorylated MBP

Chain of Fyn-SH3 (P06241 with tags, fused parts or gaps): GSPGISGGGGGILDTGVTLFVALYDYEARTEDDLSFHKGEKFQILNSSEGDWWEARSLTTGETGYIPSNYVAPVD

B1: phospho-MBP: phosphorylated myelin basic protein (protein, UniProt P02687 1-169, looked up)
Myelin basic protein: AAQKRPSQRSKYLASASTMDHARHGFLPRHRDTGILDSLGRFFGSDRGAPKRGSGKDGHHAARTTHYGSLPQKAQGHRPQDENPVVHFFKNIVTPRTPPPSQGKGRGLSLSRFSWGAEGQKPGFGYGGRASDYKSAHKGLKGHDAQGTLSKIFKLGGRDSRSGSPMARR
modifications: phosphorylated
notes: phosphorylated myelin basic protein
In the case of B1, the “Effect of MBP phosphorylation on interaction with Fyn-SH3” value is given as “phosphorylation weakens the interaction”.
